Molecular target: TetR (Tet Repressor) (UniProt P04483)
Experiment: not stated in material (in vitro binding)
Conditions: not given in the material held (binding assay methods absent)

Sequence of TetR (Tet Repressor) (P04483 whole entry): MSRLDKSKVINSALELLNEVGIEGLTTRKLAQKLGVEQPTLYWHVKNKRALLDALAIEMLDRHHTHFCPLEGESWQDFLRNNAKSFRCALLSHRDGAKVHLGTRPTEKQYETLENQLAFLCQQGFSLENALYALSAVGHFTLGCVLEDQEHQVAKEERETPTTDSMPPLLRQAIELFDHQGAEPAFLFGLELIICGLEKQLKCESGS

Sequence: GGGCUUGUUACCAGACAACCAUUACUUAUCCUAUCAAUCUGCCUUAUCCAAAGAUCCAAACGAAAAGAGAGACCACAUGGUCUUGUUAGAAUUUGUUACUUAAUCUAGAAAUUAUCUAGGAUCCAGGCAGAGAAAGGUCGAUACGGACGGAAUGUGAUGGCCUGGAUCCAACACAAAACUCGAGAACAUCCCGGGAAAAUCUAGAAUUCCUUCGAUAGAUCAAUUUUUUUCUUUUCUCUUUCCCCAUCCUUUACGCUAAAAUAAUAGUUUAUUUUAUUUUUUGAAUAUUUUUUAUUUAUAUACGUAUAUAUAGACUAUUAUUUAUCUUUUAAUGAUU [3'UTR + aptamer (vYFPΔ-5-1.2 bases 613-946)]
- Kd: 0.8 nM
